According to patent US20190234935A1 (Janssen / Centocor, published 2019):

T1: GFRAL ECD-Fc (GFRAL extracellular domain, human IgG1 Fc, 6xHis-tag and Avi-tag) (human, UniProt Q6UXV0 19-351)
T1 construct: The recombinant signal peptide is left out; also called GFRAL extracellular domain (ECD)-Fc fusion; not shown: human IgG1 Fc; 6xHis-tag and Avi-tag at the C-terminus
T1 sequence: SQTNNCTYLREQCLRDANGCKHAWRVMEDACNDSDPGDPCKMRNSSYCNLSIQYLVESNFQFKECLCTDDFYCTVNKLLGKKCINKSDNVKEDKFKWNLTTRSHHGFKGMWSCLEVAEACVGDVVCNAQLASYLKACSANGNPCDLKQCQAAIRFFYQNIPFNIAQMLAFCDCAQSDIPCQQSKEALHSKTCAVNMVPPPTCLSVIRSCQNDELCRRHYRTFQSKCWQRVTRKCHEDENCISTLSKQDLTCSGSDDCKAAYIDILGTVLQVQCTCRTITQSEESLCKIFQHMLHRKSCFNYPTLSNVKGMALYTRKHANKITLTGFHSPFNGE

T2: Human GFRAL ECD-Fc (human GFRAL extracellular domain fused to human IgG1 Fc with 6xHis-tag) (human, UniProt Q6UXV0 19-351)
T2 construct: not shown: Human IgG1 Fc, any junction and the C-terminal 6xHis
T2 sequence: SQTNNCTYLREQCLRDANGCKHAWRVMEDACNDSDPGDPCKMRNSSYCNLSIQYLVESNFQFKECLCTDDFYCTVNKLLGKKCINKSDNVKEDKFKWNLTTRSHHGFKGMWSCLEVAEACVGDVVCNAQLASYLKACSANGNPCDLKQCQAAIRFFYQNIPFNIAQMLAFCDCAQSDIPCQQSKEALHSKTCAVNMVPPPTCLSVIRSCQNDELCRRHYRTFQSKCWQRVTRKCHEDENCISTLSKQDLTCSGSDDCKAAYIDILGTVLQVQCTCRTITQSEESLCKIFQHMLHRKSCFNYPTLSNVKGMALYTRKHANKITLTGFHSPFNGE


Key:
[1] = target: T1, GFRAL ECD-Fc (GFRAL extracellular …); assay: SPR
[2] = target: T3, cyno GFRAL ECD-Fc (cynomolgus monkey GFRAL extracellular domain fused to human IgG1 Fc with 6xHis-tag) (cynomolgus monkey); assay: SPR (ProteOn), GFRAL ECD-Fc captured by anti-human IgG Fc
Description: (§1) Affinity measurements using Surface Plasmon Resonance (SPR) were performed using a ProteOn XPR36 system (Bio-Rad, Hercules, Calif.). A biosensor surface was prepared by coupling anti-Human IgG Fc (Jackson Immuno Research Labs, West Grove, Pa.) to the modified alginate polymer layer surface of a GLC chip (BioRad) using the manufacturer's instructions for amine-coupling chemistry. Approximately 5000 RU (response units) of mAbs were immobilized. The kinetic experiments were performed at 25° C. in running buffer (DPBS+0.01% P20+100 μg/ml BSA). To perform binding kinetic experiment of HSA-GDF15, GFRAL ECD-Fc or isotype control were captured followed by injections of ligands at 5 concentrations (in a 4-fold serial dilution). The association phase was monitored for 3 minutes at 50 μl/min, then followed by 15 minutes of buffer flow (dissociation phase). The chip surface was regenerated with two 18 second pulses of 100 mM H3PO4 (Sigma, St. Louis, Mo.) at 100 μL/min. The collected data were processed using ProteOn Manager software. First, the data was corrected for background using inter-spots. Then, double reference subtraction of the data was performed by using the buffer injection for analyte injections. The kinetic analysis of the data was performed using a Langmuir 1:1 binding model. The result was reported in the format of ka (On-rate), kd (Off-rate) and KD (equilibrium dissociation constant).

[3] = target: T2, Human GFRAL ECD-Fc (human GFRAL …); assay: as above
Description: as §1

[4] = target: T3, cyno GFRAL ECD-Fc (cynomolgus monkey …); assay: SPR (ProteOn)
Description: as §1, with “The result was reported in the format of ka (On-rate), kd (Off-rate) and KD (equilibrium dissociation constant).” left out

Row | Kd [1] | koff [1] | kon [1] | Kd [2] | koff [2] | kon [2] | Kd [3] | koff [3] | kon [3] | fold difference in binding affinity against human GFRAL [4] | Binder
1 | 0.0196 nM | 0.000197 s⁻¹ | 1.01e+07 M⁻¹ s⁻¹ |  |  |  |  |  |  |  | FlagTag-GDF15, homodimer (ligand, it is counted on the native full length protein; also called non-fusion GDF15; mature GDF15 homodimer) EFDYKDDDDKARNGDHCPLGPGRCCRLHTVRASLEDLGWADWVLSPREVQVTMCIGACPSQFRAANMHAQIKTSLHRLKPDTVPAPCCVPASYNPMVLIQKTDTGVSLQTYDDLLAKDCHCI
2 |  |  |  | 0.157 nM | 0.000291 s⁻¹ | 1.86e+06 M⁻¹ s⁻¹ | 0.0861 nM | 0.000156 s⁻¹ | 1.81e+06 M⁻¹ s⁻¹ | ≤ 2 fold | HSA-GDF15 (Example 7; linker SEQ ID NO:26) (ligand, not shown: large carriers; small tags and cut ends, Disulfide-linked homodimer through GDF15; one protomer is given., No His tag is told of for this construct; purified on HSA CaptureSelect resin) ARNGDHCPLGPGRCCRLHTVRASLEDLGWADWVLSPREVQVTMCIGACPSQFRAANMHAQIKTSLHRLKPDTVPAPCCVPASYNPMVLIQKTDTGVSLQTYDDLLAKDCHCI
